The supplement of paper PMC10567573

B1: ATL3 (parent)
chain: FSFRYQQELEEEIKELYENFCKHN
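Further: lentivirally expressed fusions sorted by FACS into six bins by GFP to DsRed ratio, PSI derived from sequencing read proportions per bin multiplied by bin number.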

Variants of: B1
Assay: protein stability index of a GFP-peptide fusion (GPS, HEK-293T) (PSI 1-6); higher = more stable
Conditions: c terminus: a fixed tail appended
In the case of FSFRYQQELEEEIKELYEAFCKHN, the protein stability index is reported as 2.28.
With FSFRYQQELEEEIKELYESFCKHN the protein stability index was 2.41.
Variant FSFRYQQELEEEIKELYEKFCKHN has a protein stability index of 1.92.
FSFRYQQELEEEIKELYEGFCKHN gave a protein stability index of 1.73.
Work on FSFRYQQELEEEIKELYEVFCKHN yielded a protein stability index of 1.81.
In the case of FSFRYQQELEEEIKELYEMFCKHN, the protein stability index is reported as 1.66.
For FSFRYQQELEEEIKELYEFFCKHN, the protein stability index was 1.72.
With FSFRYQQELEEEIKELYERFCKHN the protein stability index was 2.31.
In the case of FSFRYQQELEEEIKELYEWFCKHN, the protein stability index is reported as 1.73.
For FSFRYQQELEEEIKELYELFCKHN, the protein stability index was 1.98.
Work on FSFRYQQELEEEIKELYEPFCKHN yielded a protein stability index of 2.16.
FSFRYQQELEEEIKELYETFCKHN gave a protein stability index of 1.99.
Variant FSFRYQQELEEEIKELYEEFCKHN has a protein stability index of 2.06.
Variant FSFRYQQELEEEIKELYECFCKHN has a protein stability index of 2.02.
FSFRYQQELEEEIKELYEIFCKHN showed a protein stability index of 2.04.
FSFRYQQELEEEIKELYEDFCKHN gave a protein stability index of 1.44.
Work on FSFRYQQELEEEIKELYEQFCKHN yielded a protein stability index of 2.04.
Variant FSFRYQQELEEEIKELYEHFCKHN has a protein stability index of 1.97.
Variant FSFRYQQELEEEIKELYEYFCKHN has a protein stability index of 1.89.
FSFRYQQELEEEIKELYENFCKHH gave a protein stability index of 2.64.
For FSFRYQQELEEEIKELYENFCKHP, the protein stability index was 1.96.
For FSFRYQQELEEEIKELYENFCKHC, the protein stability index was 2.77.
In the case of FSFRYQQELEEEIKELYENFCKHM, the protein stability index is reported as 2.49.
For FSFRYQQELEEEIKELYENFCKHF, the protein stability index was 3.38.
With FSFRYQQELEEEIKELYENFCKHK the protein stability index was 2.48.
FSFRYQQELEEEIKELYENFCKHL showed a protein stability index of 2.64.
FSFRYQQELEEEIKELYENFCKHY showed a protein stability index of 2.61.
With FSFRYQQELEEEIKELYENFCKHT the protein stability index was 3.13.
With FSFRYQQELEEEIKELYENFCKHR the protein stability index was 2.42.
With FSFRYQQELEEEIKELYENFCKHW the protein stability index was 2.12.
Work on FSFRYQQELEEEIKELYENFCKHA yielded a protein stability index of 2.37.
Variant FSFRYQQELEEEIKELYENFCKHG has a protein stability index of 2.36.
Variant FSFRYQQELEEEIKELYENFCKHV has a protein stability index of 3.5.
For FSFRYQQELEEEIKELYENFCKHI, the protein stability index was 2.82.
In the case of FSFRYQQELEEEIKELYENFCKHS, the protein stability index is reported as 2.14.
With FSFRYQQELEEEIKELYENFCKHE the protein stability index was 1.93.
Variant FSFRYQQELEEEIKELYENFCKHD has a protein stability index of 2.49.
Variant FSFRYQQELEEEIKELYENFCKLN has a protein stability index of 2.73.
In the case of FSFRYQQELEEEIKELYENFCKTN, the protein stability index is reported as 3.04.
For FSFRYQQELEEEIKELYENFCKEN, the protein stability index was 2.63.
For FSFRYQQELEEEIKELYENFCKMN, the protein stability index was 2.49.
FSFRYQQELEEEIKELYENFCKCN gave a protein stability index of 1.84.
FSFRYQQELEEEIKELYENFCKRN showed a protein stability index of 1.86.
FSFRYQQELEEEIKELYENFCKYN gave a protein stability index of 2.49.
FSFRYQQELEEEIKELYENFCKFN gave a protein stability index of 2.19.
With FSFRYQQELEEEIKELYENFCKSN the protein stability index was 2.1.
FSFRYQQELEEEIKELYENFCKDN gave a protein stability index of 2.12.
Work on FSFRYQQELEEEIKELYENFCKPN yielded a protein stability index of 1.6.
With FSFRYQQELEEEIKELYENFCKAN the protein stability index was 2.25.
FSFRYQQELEEEIKELYENFCKNN showed a protein stability index of 2.3.
In the case of FSFRYQQELEEEIKELYENFCKWN, the protein stability index is reported as 2.14.
FSFRYQQELEEEIKELYENFCKQN gave a protein stability index of 2.75.
With FSFRYQQELEEEIKELYENFCKKN the protein stability index was 3.21.
FSFRYQQELEEEIKELYENFCKGN showed a protein stability index of 2.04.
FSFRYQQELEEEIKELYENFCKIN showed a protein stability index of 2.43.
For FSFRYQQELEEEIKELYENRCKHN, the protein stability index was 2.8.
Work on FSFRYQQELEEEIKELYENCCKHN yielded a protein stability index of 2.66.
For FSFRYQQELEEEIKELYENHCKHN, the protein stability index was 2.73.
FSFRYQQELEEEIKELYENACKHN showed a protein stability index of 2.83.
Work on FSFRYQQELEEEIKELYENSCKHN yielded a protein stability index of 3.01.
Variant FSFRYQQELEEEIKELYENMCKHN has a protein stability index of 2.17.
Variant FSFRYQQELEEEIKELYENVCKHN has a protein stability index of 2.02.
Variant FSFRYQQELEEEIKELYENKCKHN has a protein stability index of 2.81.
With FSFRYQQELEEEIKELYENWCKHN the protein stability index was 1.9.
FSFRYQQELEEEIKELYENLCKHN showed a protein stability index of 2.19.
In the case of FSFRYQQELEEEIKELYENTCKHN, the protein stability index is reported as 2.41.
For FSFRYQQELEEEIKELYENDCKHN, the protein stability index was 2.62.
In the case of FSFRYQQELEEEIKELYENGCKHN, the protein stability index is reported as 2.81.
For FSFRYQQELEEEIKELYENECKHN, the protein stability index was 3.58.
For FSFRYQQELEEEIKELYENNCKHN, the protein stability index was 2.61.
For FSFRYQQELEEEIKELYENYCKHN, the protein stability index was 2.38.
Work on FSFRYQQELEEEIKELYENQCKHN yielded a protein stability index of 2.55.
Variant FSFRYQQELEEEIKELYENPCKHN has a protein stability index of 2.5.
FSFRYQQELEEEIKELYENICKHN showed a protein stability index of 1.71.
With FSFRYQQELEEEIKELYWNFCKHN the protein stability index was 1.34.
In the case of FSFRYQQELEEEIKELYDNFCKHN, the protein stability index is reported as 2.6.
FSFRYQQELEEEIKELYNNFCKHN showed a protein stability index of 2.15.
With FSFRYQQELEEEIKELYFNFCKHN the protein stability index was 1.21.
FSFRYQQELEEEIKELYLNFCKHN showed a protein stability index of 1.55.
FSFRYQQELEEEIKELYVNFCKHN gave a protein stability index of 3.55.
With FSFRYQQELEEEIKELYRNFCKHN the protein stability index was 1.96.
Variant FSFRYQQELEEEIKELYYNFCKHN has a protein stability index of 2.15.
In the case of FSFRYQQELEEEIKELYKNFCKHN, the protein stability index is reported as 1.72.
For FSFRYQQELEEEIKELYANFCKHN, the protein stability index was 2.19.
With FSFRYQQELEEEIKELYPNFCKHN the protein stability index was 1.77.
FSFRYQQELEEEIKELYCNFCKHN showed a protein stability index of 1.57.
With FSFRYQQELEEEIKELYTNFCKHN the protein stability index was 2.52.
FSFRYQQELEEEIKELYQNFCKHN showed a protein stability index of 1.8.
With FSFRYQQELEEEIKELYHNFCKHN the protein stability index was 1.89.
FSFRYQQELEEEIKELYINFCKHN gave a protein stability index of 2.28.
For FSFRYQQELEEEIKELYSNFCKHN, the protein stability index was 1.91.
Work on FSFRYQQELEEEIKELYMNFCKHN yielded a protein stability index of 2.27.
Variant FSFRYQQELEEEIKELYENFCCHN has a protein stability index of 2.06.
In the case of FSFRYQQELEEEIKELYENFCEHN, the protein stability index is reported as 2.41.
